Measurements published in article PMC11997214.

Test: Flag IP, Ub blots after NMS-873 or CB-5083
Details: glycan lost; control: wild type

B1: B7H3 (4IgB7H3, CD276): N91/104/309/322Q (protein)
parent chain: MLRRRGSPGMGVHVGAALGALWFCLTGALEVQVPEDPVVALVGTDATLCCSFSPEPGFSLAQLNLIWQLTDTKQLVHSFAEGQDQGSAYANRTALFPDLLAQGNASLRLQRVRVADEGSFTCFVSIRDFGSAAVSLQVAAPYSKPSMTLEPNKDLRPGDTVTITCSSYQGYPEAEVFWQDGQGVPLTGNVTTSQMANEQGLFDVHSILRVVLGANGTYSCLVRNPVLQQDAHSSVTITPQRSPTGAVEVQVPEDPVVALVGTDATLRCSFSPEPGFSLAQLNLIWQLTDTKQLVHSFTEGRDQGSAYANRTALFPDLLAQGNASLRLQRVRVADEGSFTCFVSIRDFGSAAVSLQVAAPYSKPSMTLEPNKDLRPGDTVTITCSSYRGYPEAEVFWQDGQGVPLTGNVTTSQMANEQGLFDVHSVLRVVLGANGTYSCLVRNPVLQQDAHGSVTITGQPMTFPPEALWVTVGLSVCLIALLVALAFVCWRKIKQSCEEENAGAEDQDGEGEGSKTALQPLKHSDSKEDDGQEIA
- other: total and K48-linked ubiquitination: increases

B2: B7H3 (4IgB7H3, CD276): 8NQ (protein)
parent chain: B1 parent chain
- other: total and K48-linked ubiquitination: increases
